Source: PMC6279779

Columns and labels:
[1] = biological target: soluble domain of Arabidopsis thaliana cytochrome c1 (Arabidopsis thaliana)
[2] = biological target: soluble domain of Arabidopsis thaliana cytochrome c1 (Arabidopsis thaliana); remark: listed apart in the source

distance decay factor (β) of the pCc1–hCc current after addition of wild-type hCc (12.5 μM, without C-terminal cysteine) to the medium, as an inhibition experiment [1]: 3 nm^−1 | average distance decay factor (β) of the pCc1–hCc current against the electrochemical gate potential at 200 mV constant bias; minimum at −0.25 V EC gate potential [2]: 0.5 nm^−1
Substance: Homo sapiens E104C cytochrome c mutant (from UniProt P99999 1-105) (natural protein)
